Test results taken from article PMC8233204, “Cardiac myosin-binding protein C interaction with actin is inhibited by compounds identified in a high-throughput fluorescence lifetime screen” (The Journal of Biological Chemistry, 2021).
pKd: −log10 of the molar value. Like-named read-outs stand apart in the source and are kept apart here. One block for each compound: values may come before it.

What was measured:
ErIA-actin = target: T1, ErIA-actin (Oryctolagus cuniculus, UniProt P68135); test: Transient phosphorescence anisotropy (TPA) of ErIA-actin alone; assay type: biochemical, rabbit; settings: concentration not given
T1 construct: Actin was prepared from rabbit skeletal muscle by extracting acetone powder; from tissue; host or cells: rabbit skeletal muscle (acetone powder)
Protocol: […] These were added together with glucose catalase/oxidase to prevent photobleaching, and TPA was performed at 25 °C to determine anisotropy values ([7]).

ErIA-actin + C0-C2 = target: T2, ErIA-actin + C0-C2 (Homo sapiens, UniProt Q14896); test: Transient phosphorescence anisotropy (TPA) of ErIA-actin with C0-C2; assay type: biochemical; settings: 1 μM ErIA-actin, 2 μM C0-C2; actin alone 0.033 ± 0.001
T2 construct: N-terminal domains C0 through C2 (C0-C2), containing the proline/alanine-rich linker (P/A) and the M-domain (M); 6x His (N, cleaved yes); TEV protease cleavage site (N, cleaved yes); made in house; host or cells: E. coli BL21DE3 (C0-C2); actin purified from rabbit skeletal muscle
Protocol: The same mixtures were tested in the presence of 2 μM C0-C2. These were added together with glucose catalase/oxidase to prevent photobleaching, and TPA was performed at 25 °C to determine anisotropy values ([7]).

[1] = target: FMAL-actin (F-actin from rabbit skeletal muscle labeled at Cys-374 with fluorescein-5-maleimide) (rabbit) (UniProt P68135); test: FRET or BRET; TR-FRET; 1 μM F-actin labeled (to 10%) with FMAL (donor) with 0-20 μM TMR-C0-C2^Cys225 (acceptor) ±PKA; M-ABB
[2] = target: FMAL-actin (F-actin from rabbit skeletal muscle labeled at Cys-374 with fluorescein-5-maleimide) (rabbit) (UniProt P68135); test: as above; remark: listed apart in the source

T2 sequence (Q14896 1-451 limits assumed): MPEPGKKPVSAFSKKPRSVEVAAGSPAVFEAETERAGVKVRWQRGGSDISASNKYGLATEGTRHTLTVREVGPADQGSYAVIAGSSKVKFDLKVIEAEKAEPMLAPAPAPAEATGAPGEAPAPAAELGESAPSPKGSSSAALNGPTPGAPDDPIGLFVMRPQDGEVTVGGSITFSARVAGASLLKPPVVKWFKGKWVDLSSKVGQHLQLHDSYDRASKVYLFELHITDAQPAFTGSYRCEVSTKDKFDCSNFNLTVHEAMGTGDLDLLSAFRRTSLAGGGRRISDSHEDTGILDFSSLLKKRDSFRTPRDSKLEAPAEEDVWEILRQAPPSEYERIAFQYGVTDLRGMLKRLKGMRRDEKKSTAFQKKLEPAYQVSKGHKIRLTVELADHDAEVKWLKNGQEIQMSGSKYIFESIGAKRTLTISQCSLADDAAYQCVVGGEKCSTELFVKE

Compound: O=C(NCCO)c1cccc(-c2cc(Nc3ccc(OC(F)(F)F)cc3)ncn2)c1 [GNF-5]
effect on actin anisotropy (TPA), control compound (ErIA-actin): does bind actin and changes its anisotropy

actin's final anisotropy in the presence of C0-C2 (ErIA-actin + C0-C2): 0.071 ± 0.003
Compound: C0-C2: recombinant N-terminal fragment (domains C0 through C2) of human cMyBP-C

pKd [1]: 5.52 | pKd [2]: 5.10
Compound: TMR-C0-C2^Cys225 phosphorylated by PKA (from UniProt Q14896 1-1274) (domain or fragment)
